# Measurements published in IntAct's records for PubMed 10409743.
# B1: Cell cycle serine/threonine-protein kinase hsk1 (Schizosaccharomyces pombe (strain ATCC 38366 / 972)), P50582 (parent)
# chain: MAEAHITLSPKVTHEQQTDIDSECEITEVDDENVNENKSQEMIQDIPARDREEIENITRTFVELQENYRLIEKIGEGTFSSVYKAEDLHYGRYINDWDIQSEVLKESSFGKEKIPVNEDSRKPKYVAIKKIYATSSPARIYNELEILYLLRGSSVIAPLITALRNEDQVLVVLPYYEHTDFRQYYSTFSYRDMSIYFRCLFQAMQQTQTLGIIHRDIKPSNFLFDVRTKHGVLVDFGLAERYDGRQQSHSCRCTNSNAAELAHDFSIAQETSLGYIKNDTRPSKRANRAGTRGFRAPEVLFKCSSQSPKVDIWSAGVILLSFLTKRFPMFNSKDDVDALMEIACIFGKSEMRQCAALHGCTFETNVSTLTEKRVNFRKLILWASCGSASIYKEKLRHKPSQEERLCLDFLEKCLELDCNKRISAEEALDHDFLYLDNLAYEKKDDDTAFDNSFGETSFEKDEDLTAKHLSHILDFKEQEETDEPTSLSKRKRSIDEILPNDALQDGA
# partner: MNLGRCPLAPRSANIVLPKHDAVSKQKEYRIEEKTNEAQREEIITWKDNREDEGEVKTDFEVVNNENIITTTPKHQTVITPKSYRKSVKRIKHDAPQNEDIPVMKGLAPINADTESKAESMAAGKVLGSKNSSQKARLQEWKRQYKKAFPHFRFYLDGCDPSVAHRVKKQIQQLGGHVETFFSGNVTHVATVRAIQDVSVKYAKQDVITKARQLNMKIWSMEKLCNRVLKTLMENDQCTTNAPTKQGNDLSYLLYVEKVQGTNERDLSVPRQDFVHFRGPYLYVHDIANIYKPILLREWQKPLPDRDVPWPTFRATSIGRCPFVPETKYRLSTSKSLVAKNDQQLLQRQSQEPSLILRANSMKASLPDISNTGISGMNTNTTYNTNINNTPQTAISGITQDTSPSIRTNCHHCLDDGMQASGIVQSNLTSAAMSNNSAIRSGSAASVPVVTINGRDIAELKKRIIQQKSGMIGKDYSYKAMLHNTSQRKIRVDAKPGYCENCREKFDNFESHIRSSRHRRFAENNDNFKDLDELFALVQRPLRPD
# Variants of: B1
# Conditions: with him1_schpo him1, O59836
row,effect of a mutation on the interaction,Variant
1,with no effect,K129A;K130S
